Columns and labels:
[1] = molecular target: T1, SARS-CoV-2 RBD, wild type (Sino Biological) (SARS-CoV-2, UniProt P0DTC2 319-541); experiment: BLI, affinity format: binder on AHC sensor, RBD in solution
T1 construct: domain: RBD

[2] = molecular target: T2, SARS-CoV-2 RBD variant Alpha (N501Y) (Sino Biological) (SARS-CoV-2, UniProt P0DTC2 319-541); experiment: as above
T2 construct: domain: RBD

[3] = molecular target: T3, SARS-CoV-2 RBD variant Delta (L452R, T478K) (Sino Biological) (SARS-CoV-2, UniProt P0DTC2 319-541); experiment: as above
T3 construct: domain: RBD

[4] = molecular target: T4, SARS-CoV-2 RBD variant Kappa (L452R, E484Q) (Sino Biological) (SARS-CoV-2, UniProt P0DTC2 319-541); experiment: as above
T4 construct: domain: RBD

[5] = molecular target: T5, SARS-CoV-2 RBD variant Gamma (K417T, E484K, N501Y) (Sino Biological) (SARS-CoV-2, UniProt P0DTC2 319-541); experiment: as above
T5 construct: domain: RBD

[6] = molecular target: T6, SARS-CoV-2 RBD variant Beta (K417N, E484K, N501Y) (Sino Biological) (SARS-CoV-2, UniProt P0DTC2 319-541); experiment: as above
T6 construct: domain: RBD

[7] = molecular target: T7, SARS-CoV-2 RBD variant Lambda (L452Q, F490S) (Sino Biological) (SARS-CoV-2, UniProt P0DTC2 319-541); experiment: as above
T7 construct: domain: RBD

[8] = molecular target: T1, SARS-CoV-2 RBD, wild type (Sino …); experiment: BLI, avidity format: response at highest analyte concentration
[9] = molecular target: T2, SARS-CoV-2 RBD variant Alpha (N501Y) …; experiment: as above
[10] = molecular target: T3, SARS-CoV-2 RBD variant Delta (L452R, …); experiment: as above
[11] = molecular target: T4, SARS-CoV-2 RBD variant Kappa (L452R, …); experiment: as above
[12] = molecular target: T5, SARS-CoV-2 RBD variant Gamma (K417T, …); experiment: as above
[13] = molecular target: T6, SARS-CoV-2 RBD variant Beta (K417N, …); experiment: as above
[14] = molecular target: T7, SARS-CoV-2 RBD variant Lambda (L452Q, …); experiment: as above
[15] = molecular target: T1, SARS-CoV-2 RBD, wild type (Sino …); experiment: BLI, affinity format: response at highest analyte concentration
[16] = molecular target: T2, SARS-CoV-2 RBD variant Alpha (N501Y) …; experiment: as above
[17] = molecular target: T3, SARS-CoV-2 RBD variant Delta (L452R, …); experiment: as above
[18] = molecular target: T4, SARS-CoV-2 RBD variant Kappa (L452R, …); experiment: as above
[19] = molecular target: T5, SARS-CoV-2 RBD variant Gamma (K417T, …); experiment: as above
[20] = molecular target: T6, SARS-CoV-2 RBD variant Beta (K417N, …); experiment: as above
[21] = molecular target: T7, SARS-CoV-2 RBD variant Lambda (L452Q, …); experiment: as above
[22] = molecular target: T1, SARS-CoV-2 RBD, wild type (Sino …); experiment: BLI, avidity format: biotinylated RBD on SA sensor, binder in solution
[23] = molecular target: T2, SARS-CoV-2 RBD variant Alpha (N501Y) …; experiment: as above
[24] = molecular target: T3, SARS-CoV-2 RBD variant Delta (L452R, …); experiment: as above
[25] = molecular target: T4, SARS-CoV-2 RBD variant Kappa (L452R, …); experiment: as above
[26] = molecular target: T5, SARS-CoV-2 RBD variant Gamma (K417T, …); experiment: as above
[27] = molecular target: T6, SARS-CoV-2 RBD variant Beta (K417N, …); experiment: as above
[28] = molecular target: T7, SARS-CoV-2 RBD variant Lambda (L452Q, …); experiment: as above

B1: Tixagevimab (antibody, V domains shown)
VH: QMQLVQSGPEVKKPGTSVKVSCKASGFTFMSSAVQWVRQARGQRLEWIGWIVIGSGNTNYAQKFQERVTITRDMSTSTAYMELSSLRSEDTAVYYCAAPYCSSISCNDGFDIWGQGTMVTVSS
VL: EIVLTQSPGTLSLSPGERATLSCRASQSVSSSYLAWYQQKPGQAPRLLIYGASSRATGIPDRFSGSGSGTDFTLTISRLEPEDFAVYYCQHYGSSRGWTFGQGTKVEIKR
Kd [1]: 3.63 nM | koff [1]: 0.00406 s⁻¹ | kon [1]: 1.12e+06 M⁻¹ s⁻¹ | Kd [2]: 3.17 nM | koff [2]: 0.0026 s⁻¹ | kon [2]: 821000 M⁻¹ s⁻¹ | Kd [3]: 3.83 nM | koff [3]: 0.0043 s⁻¹ | kon [3]: 1.12e+06 M⁻¹ s⁻¹ | Kd [4]: 5.21 nM | koff [4]: 0.00469 s⁻¹ | kon [4]: 900000 M⁻¹ s⁻¹ | Kd [5]: 5.83 nM | koff [5]: 0.00484 s⁻¹ | kon [5]: 830000 M⁻¹ s⁻¹ | Kd [6]: 3.24 nM | koff [6]: 0.00318 s⁻¹ | kon [6]: 981000 M⁻¹ s⁻¹ | Kd [7]: 4.31 nM | koff [7]: 0.00337 s⁻¹ | kon [7]: 782000 M⁻¹ s⁻¹ | Response [8]: 1.7 nm shift | Response [9]: 1.35 nm shift | Response [10]: 1.3 nm shift | Response [11]: 1.54 nm shift | Response [12]: 1.58 nm shift | Response [13]: 1.14 nm shift | Response [14]: 1.76 nm shift | Response [15]: 0.477 nm shift | Response [16]: 0.552 nm shift | Response [17]: 0.513 nm shift | Response [18]: 0.472 nm shift | Response [19]: 0.474 nm shift | Response [20]: 0.46 nm shift | Response [21]: 0.411 nm shift | Kd [22]: 0.0221 nM | koff [22]: 7.4e-06 s⁻¹ | kon [22]: 335000 M⁻¹ s⁻¹ | Kd [23]: < 1 pM | koff [23]: < 1e-07 s⁻¹ | kon [23]: 447000 M⁻¹ s⁻¹ | Kd [24]: 0.0303 nM | koff [24]: 1.28e-05 s⁻¹ | kon [24]: 422000 M⁻¹ s⁻¹ | Kd [25]: < 1 pM | koff [25]: < 1e-07 s⁻¹ | kon [25]: 416000 M⁻¹ s⁻¹ | Kd [26]: < 1 pM | koff [26]: < 1e-07 s⁻¹ | kon [26]: 376000 M⁻¹ s⁻¹ | Kd [27]: < 1 pM | koff [27]: < 1e-07 s⁻¹ | kon [27]: 440000 M⁻¹ s⁻¹ | Kd [28]: < 1 pM | koff [28]: < 1e-07 s⁻¹ | kon [28]: 362000 M⁻¹ s⁻¹
